Data: a protein production outcome set (Wang et al. 2014)

Assay: label from the status in PepcDB records

Sequence | protein production
MIQLRPCPKSYTRDQDKATTPAETVRRVRERLASLDISILAETRRVDVGRLGIPVFLSVCGADARAVMPTRKQMGKGASLEQAQASALMELMERYSFFTFWRDMPGMVEATWSEARNRFGDALIPVDEILHSVHDTLSPDDAVRALDLWRWKFFPATDITHGREVWLPLDWFKKLGEFNGSSAGNTEEESILQGSCELVERHVCCLIDRTQPELPTIDPASLDDPVLLELAAAFERNGIRLVLKDFSMGMPVPTVGAIAWDPATFPERSEIVYTAGTSSSPVKAAIRAVTEVAQLAGDFCTGACYEASGLSKYESLDDIAWLVAGPVVALDTLPSVETDDIRDELAALCDGLAATGHTLYSVSTMNPDVGVNTHYNIVPGFHFRERDRNASLGLFIGRILSEEADAGTALAGLSVLEELYPGAHFLPFFKGMLALRAESHHEAISFFEQAEPLQPEADSRGLAAFYGAYVRTLLTDWQGALPGLDRAVTECPEMKEYFNLRGVCHFKLGDYAQAAQNFAQVLHIDKGAVVDLANLGLCHKFMGDTEKAEELLSAALEIDPGLDFARRHLDEMRQP | failed
MGHHHHHHSHMATGEEVPRTIIVTTRSQYGLPEDAIVYCNFNQLYKIDPSTLQMWANILKRVPNSVLWLLRFPAVGEPNIQQYAQNMGLPQNRIIFSPVAPKEEHVRRGQLADVCLDTPLCNG | failed
MPLRLDIKRKLTAMSDRVKSVDLHPTEPWMLASLYNGSVCVWNHETQTLVKTFEVCDLPVRAAKFVARKNWVVTGADDMQIRVFNYNTLERVHMFEAHSDYIRCIAVHPTQPFILTSSDDMLIKLWDWDKKWSCSQVFEGHTHYVMQIVINPKDNNQFASASLDRTIKVWQLGSSSPNFTLEGHEKGVNCIDYYSGGDKPYLISGADDRLVKIWDYQNKTCVQTPEGHAQNVSCATFHPELPIIITGSEDGTVRIWHSSTYRLESTLNYGMERVWCVASLRGSNNVALGYDEGSIIVKLGREEPAMSMDANGKIIWAKHSEVQQANLKAMGDTEIKDGERLPLAVKDMGSCEIYPQTIQHNPNGRFVVVCGDGEYIIYTAMALRNKSFGSAQEFAWAHDSSEYAIRESNSVVKIFKNFKEKKSFKPDFGAESIYGGFLLGVRSVNGLAFYDWENTELIRRIEIQPKHIFWSDSGELVCIATEESFFILKYLSEKVLAAQETHEGVTEDGIEDAFEVLGEIQEIVKTGLWVGDCFIYTSSVNRLNYYVGGEIVTIAHLDRTMYLLGYIPKDNRLYLGDKELNIVSYSLLVSVLEYQTAVMRRDFSMADKVLPTIPKEQRTRVAHFLEKQGFKQQALTVSTDPEHRFELALQLGELKIAYQLAVEAESEQKWKQLAELAISKCQFSLAQECLHHAQDYGGLLLLATASGNASMVNKLAEGAERDGKNNVAFMSYFLQGKLDACLELLIRTGRLPEAAFLARTYLPSQVSRVVKLWRENLSKVNQKAAESLADPTEYENLFPGLKEAFVVEEWVKETHADLWPAKQYPLVTPNEERNVMEEAKRFQPSRATAQQEPDGKPASSPVIMASQTTHKEEKSFQELEDDLDTMELEDIDTTDINLDEDILDD | failed
MKVYLHFSPQFFANTYLIGNEITKEAVIIDPAKITEKMIHQIEKNEFNLKAVLLTHDLEHPYETGLNTILKIYSPKVYAGSCFSENVTINTLRGDGCIDVAGYSVRYFAIPAHSSYSYMFQIENMVFTGTSLSAGMIGQTSNMYAERTLRNILKTKLMCFEDNLIIMPFYGPPTSIGVERKYNASFFQDFEKKPFLEHHHHHH | not failed
MVMPVKKVEKNILVLHGADKMFELVDKVEDYPHFLPWYSKTEVIGRSGNELKARLFMDYMHVRQSFATHNRNIPGREIRMELLEGPFKTLRGTWKFIDLGDDMCKIEFNLEYDFSNAVLSALISPVFNHLSVTLVEAFVKEADRRYA | failed
MAAPLRIQSDWAQALRKDEGEAWLSCHPPGKPSLYGSLTCQGIGLDGIPEVTASEGFTVNEINKKSIHISCPKENASSKFLAPYTTFSRIHTKSITCLDISSRGGLGVSSSTDGTMKIWQASNGELRRVLEGHVFDVNCCRFFPSGLVVLSGGMDAQLKIWSAEDASCVVTFKGHKGGILDTAIVDRGRNVVSASRDGTARLWDCGRSGCLGVLADCGSSINGVAVGAADNSINLGSPEQMPSEREVGTEAKMLLLAREDKKLQCLGLQSRQLVFLFIGSDAFNCCTFLSGFLLLAGTQDGNIYQLDVRSPRAPVQVIHRSGAPVLSLLSVRDGFIASQGDGSCFIVQQDLDYVTELTGADCDPVYKVATWEKQIYTCCRDGLVRRYQLSDL | failed
MTETKPRIAIRYCTQCNWLLRAGWMAQEILQTFASDIGEVSLIPSTGGLFEITVDGTIIWERKRDGGFPGPKELKQRIRDLIDPERDLGHVDRTKHEGLDTLEHHHHHH | not failed
MDNVELSPATRWGMIATGLLQGLVCYLLIAWLSGKNHSWIVYGVPATVAFSSVLLFSVISFKQKRLWGWLALVFIATLGMSGWLKWQTDGMTPWRAEKALWDFGCYLLLMAMLLLPWIQQSLRIRNDSSRYRYFYQSVWHNVLILLVIFLANGLTWLVLLLWSELFKLVGITFFKTLFFATDWFIYLTLGLVTALAVILARTQSRLIDSIQKLFTLIATGLLPLVSLLTLMFIITLPFTGLSAISRHISAAGLLLTLAFLQLILMAIVRDPQKASLPWTGPLRCLIKTALLVAPLYVFIAAWALWLRVAQYGWTVDRLQGALAVLVLLVWSLGYFVSIVWRKGQNPLVLQGKVNLAVSLLVLVILVLLNSPVLDSMRISVNSHMARYQSGKNTPDQVTIYMLEHSGRYGRAALESLKSDAEYMKDPKRARDLLMALDGEQHLQQQISEKVLAENVLIAPGSGKPDATFWSALIQDRYNVMTCIEKDACVLVEQDLNSDGRAERILFAFDDERYIVYGFDPDKKEWQELTMSLLPRDITKEKLLTAAKDGKLGTKPKAWRDLVVDGERLDVNLNE | failed
MVTTRKPLRAAIIGLGRLGERHARHLVNKIQGVKLVAACALDSNQLEWAKNELGVETTYTNYKDMIDTENIDAIFIVAPTPFHPEMTIYAMNAGLNVFCEKPLGLDFNEVDEMAKVIKSHPNQIFQSGFMRRYDDSYRYAKKIVDNGDIGKIIYMRGYGIDPISGMESFTKFATEADSGGIFVDMNIHDIDLIRWFTGQDPVQAYGLTSNIAAPQLADIGEFETGVAQLKMSDGVIATLIGGRHAAHGNQVELEVMGSNGWVRIGEHPDLNRVTVFNDQGVVRPSLQSFGERFDTAFTDEVQDFVNNVIVGKQPEVTVDDGIKALKIAKACQQSANIGKLVDIQL | failed
MIARPMVPTADQLATDDLSLSDRSRFWLAALEASGQGVAIADATHPDLILTYVNSAFKKLTGYNAAEALGKSCRFLQGSDRAQPGITTLRQAIRNGQACEVVLRNYRKDGSLFWNQLTIAPITDGQGKVSHYVALQRDITAFKEQEQALQRQGIYDEHSGLPKRQLFLDRLNQALAWSQFSGVPGALLLIDLGLPAHLDGSPSLSPDAEENLEIIANRLQAYVRPHETLAHLNHHQFGLLLLDPDVQLRAEERAHGIQTLIRDRLAGFEGGAHIGIVPLTPETPATVLLQAAEAAAMTARSQQQGHLSLEASAIVAAPEQYSRDRDWQQAIAAGELTLALQPQMGLRNRQLRGFEVQLRWQHPQQGTLLASQLMEHLEQSQHRETVGRWFLDQAGQLLSQWRNSAQFSGLFALSLLPQQWKSPSFIHDLRSLLETYQIPPEQLELDLPAQSLAESAAESWDWVYAVRDLGIGIGLADFGSRSIGLYDLRNLPLTTLKLERRFVRGLPDDANDRAIVRGVVAMSQALKVRIVARGVDTVDQAKFLARAECDAMQGLAYSAPLTIEEALQVARSPQAPAW | failed
VVQRAAETYDLLKQRTEELRRANAQMSLLTVLVQVTQASNSLEAILTPIATAFAESFAVNACILQMLEGQTLSTIQGFYSQQGTVNNWLNQDPLTNEAIATGQIQVAANIAKDPKLASISQYQDNGIQSHVVIPITYRNEMLGVLSLQWQQPISLREDELTLIHLSAQLVAIALTSSRCSL | not failed
MSDLLDTVRGLAKKTDSKILMVVLDGVGGLPLTVNGDTELATARTPNLDALAQESQLGQLELVGAGITPGSGPGHLSLFGYDPLKYVVGRGALSAVGIGVKLNRGDVAVRGNFATLGAGRLILDRRAGRPSDEKNAEIVAKLRAAIPEIDGVAVEVYTESEHRFVVVFRAPEGQPLGANISDVDPQVTGVEPKTAIANDPSSEVTAGLINTFVARAEVALADEPQVNGVLFRGYSDVPHFPSFEDAYQLKAACIASYPMYKGLASLVGMDVLPVEGHEDALEGKVKALRENWAKYDFFYFHIKKTDSTGEDGDFAEKVHKIELFDELLPQLLELQPDVIAVVGDHSTPSKLKSHSWHPVPLLIRSNYGRRDPAQRYTEEEAARGTLGLRHGPDLMPLLMANALKLNKYGALEHHHHHH | not failed
LNTNQLFAYLNRGDIAEFKFSPLFTTLFFPNVATFSTQNIMLDTLDIEEVTMSAFCSPMVGSQVQRDKGYETSTIKPGYMKPKHEIDPTKTIMRMAGEDPAQLNDPTYRRMRLITGNMRRQINAIKARVEWLAVNAVTTGKNIIEGEGIERYEIDWKIPEKNIIEQADGKKWSEQDKETHYPIYDIELYADQAGCPANVMIMGAEVWRTLRSFKKFRELYDLSRGSESAAELACKNLGEVVSFKGYLGDLALIVYSGKYTDSDGTEKYFLEPDLLVLGNTNNKGLVAYGAIMDQEAVRTGATQNMFYPKNWIEDGDPAIEYVQTHSAPQPVPADIRKFVTVKIA | failed
MFLSGAHSFNANCRRQRQRVFGAPRVPLGESKICCVWAQHFLPCSRVYDPMTSKVSSPTLLEALSSDFLACKICLEQLHTPKTLPCLHTYCQDCLAQLDIGGQVRCPECRETVPVPPEGVAAFKTNFFVNGLLDLVKARAAGDSHSGKPTCALCPLVGGKSSGGPATARCLDCADDLCQACADGHRCSRQTHKHRVVDLVGYRAGWYDEEARERQASQCPQHPGETLCFLCQPCSQLLCKDCRLGPHIDHPCLPLAEAVRSRKPGLEELLAGVDSNLLELEATRVAEKEALALLREQAASVGTQVEEAAERILKSLLAQKQEVLGQLRALVEAAEEATRERLTKIESQEQVAKAAAAFARRVLSLGLEAEILSLEGAITQRLRQLQDTPWTSGPTRCVLPQLELHPGLEDKNCHLLRLSFEEPRQSQKDGGKVGAGTQGGDEAQSQGDDRTKTGKQGGAQPLIPKEGKAQNPPEDDEVLIERGNRPNKKKKCKGRGKSVSREPSPILRPNLEGSGPLPRPVFSWSFPTRMPGDKRSPRITGLCPYGPQEILVADEQNRVLKRFSLNGDYKGTVPVPEGCSPCSVAALQNAVAFSANAKLYLVSPEGEVQWRRSLSLAQSSHAVAAMPCGDRVAVSVAGHVEVYKKEGSLATRFIPGGKASRGQRALVFLTTSPQGNFVGSDWQQNSVVFCDGLGQVIWEYKGPGLHGCQPGSVSVDKKGYIFLTLREVNKVVILDPKGSLLGDFLTAYHGLEKPRVTTMVDGKYLVVSLSNGTIHVFRVRFPDS | failed
AIAAEMKTYSHRTMPSACTLVMCSSVESGLPGRDGRDGREGPRGEKGDPGLPGAAGQAGMPGQAGPVGPKGDNGSVGEPGPKGDTGPS | failed
QPTGTMTTDSKLTSKESALALTNSAYLKNTVFNKMTPGWGCNTILLLEYMTGKATSENSQSNYKDFQDLLVSDRSLYIEDWWQDCYAGIANCNLALQKLGEFENLDASLVNGYMAEVKFMRALYYFYLVRIFGDVPKITTVQSELGELQVSRAPVKEIYDEIIIPDLLEAEQSDLAFSDHTGRVSMGAVKALLADVYLTYAGYPLQGGKSYYAESAKRSLEVIKSNEYTLFTDYESLRLPSQNNKGEFIYQVQFSLNKRHNESVRIFLPSRSGISAYDLEYGSLIPTKEFVESFEKGDKRTEEKQYFFTNYKGHPSKFSPGAAELEFMDLNGYYIYKFFDQVAVDNTAKSDLNWSVYRYTDVLLMYAEAQVNADGTPNQQSIDIVNQIRGRAGLAPFKQTNASAFLEEVWDQRYFDLCYENKMWFDMLRTRKIRDDKSGEYVDFIGYKTNWGKVYTETQLLFPIPLSERQANPNLTQNQGY | not failed
METWITSIMADFGYIGIFLLIMIENLFPPIPSEIILTFGGFMTTVSSLNVVMVIIVATLGSVVGAILLYKVASYFGKERLTHIVLKYGRVLRLKESDIERAESFFLKYGSWAVFLCRMIPLIRSLISIPAGMTKMKMSRFLILTTAGSLLWNTVLIGLGALLGESWGEIVVFMDSFSTVIYSIIAVITLLGLGFFFRARFKKTLDEE | failed
